Experimental data: patent publication US20140072613A1, “Compositions and Methods for Treating Cutaneous Scarring” (priority 2012, published 2014)

Assays:
Assay in all cases: cell-based or functional assay
[1] = target: CDK5/p25(h) (human) (UniProt Q00535)
[2] = target: T1, Ret(V804M)(h) (human) (UniProt P07949)
T1 sequence (looked up): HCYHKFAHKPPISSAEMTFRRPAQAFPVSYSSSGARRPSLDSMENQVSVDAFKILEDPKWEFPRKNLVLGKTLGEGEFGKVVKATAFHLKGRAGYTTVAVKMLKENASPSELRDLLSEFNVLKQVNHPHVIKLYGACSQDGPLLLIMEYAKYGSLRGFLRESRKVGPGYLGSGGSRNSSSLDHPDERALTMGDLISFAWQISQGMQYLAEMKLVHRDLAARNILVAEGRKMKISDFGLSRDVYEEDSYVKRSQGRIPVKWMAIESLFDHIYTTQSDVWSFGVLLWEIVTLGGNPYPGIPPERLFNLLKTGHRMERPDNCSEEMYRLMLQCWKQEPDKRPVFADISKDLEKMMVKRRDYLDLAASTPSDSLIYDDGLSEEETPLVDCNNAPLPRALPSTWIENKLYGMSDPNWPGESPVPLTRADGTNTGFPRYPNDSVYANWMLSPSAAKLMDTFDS

[3] = target: T2, NEK2(h) (human) (UniProt P51955)
T2 sequence (looked up): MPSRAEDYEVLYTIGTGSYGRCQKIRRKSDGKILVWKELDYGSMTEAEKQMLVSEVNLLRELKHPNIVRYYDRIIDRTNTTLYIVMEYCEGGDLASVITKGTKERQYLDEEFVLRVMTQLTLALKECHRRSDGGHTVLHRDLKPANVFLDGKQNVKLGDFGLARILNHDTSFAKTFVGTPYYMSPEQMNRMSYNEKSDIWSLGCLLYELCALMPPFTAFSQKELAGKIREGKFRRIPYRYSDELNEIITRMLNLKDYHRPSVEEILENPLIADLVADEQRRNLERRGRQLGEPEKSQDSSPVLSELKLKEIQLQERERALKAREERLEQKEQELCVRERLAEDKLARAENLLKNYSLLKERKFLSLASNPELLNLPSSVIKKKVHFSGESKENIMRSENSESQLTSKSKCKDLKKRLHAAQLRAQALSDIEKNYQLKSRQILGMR

[4] = target: BTK(h) (human) (UniProt Q06187)
BTK(h) (human), sequence (Q06187 whole entry): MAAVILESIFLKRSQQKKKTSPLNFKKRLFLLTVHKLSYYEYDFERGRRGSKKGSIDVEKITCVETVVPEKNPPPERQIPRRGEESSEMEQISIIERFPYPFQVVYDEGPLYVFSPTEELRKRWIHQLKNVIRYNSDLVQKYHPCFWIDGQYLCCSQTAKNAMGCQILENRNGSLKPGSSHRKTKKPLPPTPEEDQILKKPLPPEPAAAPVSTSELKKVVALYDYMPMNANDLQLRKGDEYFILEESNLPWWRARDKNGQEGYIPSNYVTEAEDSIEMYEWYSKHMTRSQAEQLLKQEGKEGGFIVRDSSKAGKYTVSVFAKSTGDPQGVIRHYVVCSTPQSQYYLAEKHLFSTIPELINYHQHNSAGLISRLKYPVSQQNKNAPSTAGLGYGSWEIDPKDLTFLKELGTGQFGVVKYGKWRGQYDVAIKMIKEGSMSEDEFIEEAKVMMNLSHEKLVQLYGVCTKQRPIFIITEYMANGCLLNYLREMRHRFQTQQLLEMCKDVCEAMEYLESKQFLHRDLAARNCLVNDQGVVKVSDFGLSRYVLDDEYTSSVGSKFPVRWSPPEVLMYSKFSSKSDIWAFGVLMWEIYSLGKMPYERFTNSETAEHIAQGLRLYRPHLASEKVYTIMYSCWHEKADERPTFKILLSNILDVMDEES

[5] = target: Ros(h) (human) (UniProt P08922)
Ros(h) (human), sequence (P08922 1883-2347 limits assumed): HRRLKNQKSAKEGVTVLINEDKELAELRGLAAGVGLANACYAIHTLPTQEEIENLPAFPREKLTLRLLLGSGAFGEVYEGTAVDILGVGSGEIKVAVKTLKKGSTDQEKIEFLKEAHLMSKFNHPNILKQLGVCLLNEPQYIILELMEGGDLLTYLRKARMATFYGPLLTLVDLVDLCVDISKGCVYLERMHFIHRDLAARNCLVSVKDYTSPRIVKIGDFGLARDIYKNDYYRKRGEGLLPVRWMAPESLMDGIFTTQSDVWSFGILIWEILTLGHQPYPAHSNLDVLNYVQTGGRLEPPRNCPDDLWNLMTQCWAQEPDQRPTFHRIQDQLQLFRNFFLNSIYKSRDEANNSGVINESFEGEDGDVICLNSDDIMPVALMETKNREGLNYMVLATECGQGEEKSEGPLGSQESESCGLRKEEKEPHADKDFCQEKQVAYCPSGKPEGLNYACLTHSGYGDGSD

[6] = target: MELK(h) (human) (UniProt Q14680)
[7] = target: T3, PKCζ(h) (human) (UniProt Q05513)
T3 sequence (looked up): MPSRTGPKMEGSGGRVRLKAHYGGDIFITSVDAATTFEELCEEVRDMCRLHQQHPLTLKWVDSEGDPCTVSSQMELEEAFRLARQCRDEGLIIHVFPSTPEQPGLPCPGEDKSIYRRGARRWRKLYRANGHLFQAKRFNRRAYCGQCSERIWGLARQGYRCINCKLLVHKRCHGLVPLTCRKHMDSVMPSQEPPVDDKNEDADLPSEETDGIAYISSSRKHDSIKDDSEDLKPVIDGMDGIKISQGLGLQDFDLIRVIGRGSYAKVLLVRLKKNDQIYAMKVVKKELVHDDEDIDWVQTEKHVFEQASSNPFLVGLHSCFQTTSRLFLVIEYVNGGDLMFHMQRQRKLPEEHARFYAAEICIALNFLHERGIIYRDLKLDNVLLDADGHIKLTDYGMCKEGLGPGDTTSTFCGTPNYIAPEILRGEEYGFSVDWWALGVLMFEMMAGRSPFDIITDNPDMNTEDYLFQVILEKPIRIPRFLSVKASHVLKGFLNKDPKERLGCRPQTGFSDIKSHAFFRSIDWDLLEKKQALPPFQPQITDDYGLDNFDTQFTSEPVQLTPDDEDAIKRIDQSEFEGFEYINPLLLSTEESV

[8] = target: CaMKI(h) (human) (UniProt Q14012)
CaMKI(h) (human), sequence (Q14012 whole entry): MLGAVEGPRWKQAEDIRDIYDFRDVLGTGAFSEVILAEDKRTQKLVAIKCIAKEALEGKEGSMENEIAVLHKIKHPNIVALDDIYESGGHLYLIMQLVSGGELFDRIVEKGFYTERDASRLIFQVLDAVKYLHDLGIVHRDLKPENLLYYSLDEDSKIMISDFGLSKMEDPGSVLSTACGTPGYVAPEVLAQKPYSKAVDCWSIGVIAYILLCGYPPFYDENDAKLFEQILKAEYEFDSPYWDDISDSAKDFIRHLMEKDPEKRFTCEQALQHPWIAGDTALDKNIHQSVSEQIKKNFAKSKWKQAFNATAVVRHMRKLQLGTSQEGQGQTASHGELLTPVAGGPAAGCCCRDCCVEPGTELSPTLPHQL

[9] = target: MAPKAP-K2(h) (human) (UniProt P49137)
MAPKAP-K2(h) (human), sequence (P49137 46-400 limits assumed): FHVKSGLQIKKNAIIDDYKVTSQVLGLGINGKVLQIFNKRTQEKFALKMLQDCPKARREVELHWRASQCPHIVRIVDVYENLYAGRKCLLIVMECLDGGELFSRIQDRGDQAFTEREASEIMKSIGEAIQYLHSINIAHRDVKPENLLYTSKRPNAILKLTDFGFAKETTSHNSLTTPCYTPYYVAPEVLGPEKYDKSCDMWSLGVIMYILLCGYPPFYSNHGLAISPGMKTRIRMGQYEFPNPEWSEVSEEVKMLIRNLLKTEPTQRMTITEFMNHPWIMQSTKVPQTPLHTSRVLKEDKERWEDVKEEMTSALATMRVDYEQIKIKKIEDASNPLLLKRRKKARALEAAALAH

[10] = target: SAPK2b(h) (human) (UniProt Q15759)
SAPK2b(h) (human), sequence (Q15759 whole entry): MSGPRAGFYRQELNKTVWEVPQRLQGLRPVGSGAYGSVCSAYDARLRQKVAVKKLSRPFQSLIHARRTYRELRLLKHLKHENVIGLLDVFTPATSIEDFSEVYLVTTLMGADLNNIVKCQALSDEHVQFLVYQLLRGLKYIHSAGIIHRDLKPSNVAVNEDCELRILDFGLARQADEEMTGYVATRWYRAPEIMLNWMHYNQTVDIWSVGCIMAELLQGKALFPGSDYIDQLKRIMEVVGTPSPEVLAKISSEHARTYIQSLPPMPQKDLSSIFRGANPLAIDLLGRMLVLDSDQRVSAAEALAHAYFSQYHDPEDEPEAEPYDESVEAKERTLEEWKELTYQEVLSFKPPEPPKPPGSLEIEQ

[11] = target: CaMKIIβ(h) (human) (UniProt Q13554)
CaMKIIβ(h) (human), sequence (Q13554 whole entry): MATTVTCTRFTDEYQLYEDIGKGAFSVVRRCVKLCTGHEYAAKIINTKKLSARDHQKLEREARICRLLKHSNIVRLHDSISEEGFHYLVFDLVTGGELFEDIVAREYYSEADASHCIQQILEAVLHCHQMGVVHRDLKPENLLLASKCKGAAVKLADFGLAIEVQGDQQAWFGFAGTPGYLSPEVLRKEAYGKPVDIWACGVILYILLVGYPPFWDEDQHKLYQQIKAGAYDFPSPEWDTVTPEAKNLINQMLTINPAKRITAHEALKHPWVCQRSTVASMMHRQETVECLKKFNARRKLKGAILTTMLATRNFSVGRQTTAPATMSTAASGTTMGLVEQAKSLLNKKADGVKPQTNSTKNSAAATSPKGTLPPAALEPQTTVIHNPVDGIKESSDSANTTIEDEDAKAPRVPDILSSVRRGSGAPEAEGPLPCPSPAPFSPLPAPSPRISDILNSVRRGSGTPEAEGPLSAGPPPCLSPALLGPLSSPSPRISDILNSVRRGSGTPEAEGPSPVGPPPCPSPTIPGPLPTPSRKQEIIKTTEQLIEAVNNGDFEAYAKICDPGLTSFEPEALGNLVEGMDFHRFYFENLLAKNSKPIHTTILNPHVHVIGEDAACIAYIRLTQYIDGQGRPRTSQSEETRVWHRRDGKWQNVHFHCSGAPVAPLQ

[12] = target: T4, PKG1β(h) (human) (UniProt Q13976)
T4 sequence (looked up): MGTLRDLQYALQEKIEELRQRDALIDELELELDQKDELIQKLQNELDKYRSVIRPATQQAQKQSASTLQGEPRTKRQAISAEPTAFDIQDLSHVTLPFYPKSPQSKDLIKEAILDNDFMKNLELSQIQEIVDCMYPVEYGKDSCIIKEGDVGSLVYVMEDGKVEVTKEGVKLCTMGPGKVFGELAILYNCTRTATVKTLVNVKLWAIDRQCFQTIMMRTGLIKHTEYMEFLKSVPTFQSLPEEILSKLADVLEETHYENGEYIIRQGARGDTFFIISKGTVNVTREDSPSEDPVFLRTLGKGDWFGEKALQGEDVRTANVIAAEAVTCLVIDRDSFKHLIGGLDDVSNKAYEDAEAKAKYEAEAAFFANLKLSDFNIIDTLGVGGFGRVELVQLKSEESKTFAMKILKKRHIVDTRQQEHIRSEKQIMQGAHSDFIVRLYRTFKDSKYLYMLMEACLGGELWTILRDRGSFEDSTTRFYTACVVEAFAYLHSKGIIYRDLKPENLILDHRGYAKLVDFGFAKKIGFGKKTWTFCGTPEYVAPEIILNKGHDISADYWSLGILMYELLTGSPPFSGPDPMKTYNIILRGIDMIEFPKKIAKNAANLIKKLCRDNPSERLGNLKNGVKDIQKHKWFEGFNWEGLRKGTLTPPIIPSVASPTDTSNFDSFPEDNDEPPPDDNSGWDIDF

[13] = target: FGFR1(h) (human) (UniProt P11362)
FGFR1(h) (human), sequence (P11362 456-765 limits assumed): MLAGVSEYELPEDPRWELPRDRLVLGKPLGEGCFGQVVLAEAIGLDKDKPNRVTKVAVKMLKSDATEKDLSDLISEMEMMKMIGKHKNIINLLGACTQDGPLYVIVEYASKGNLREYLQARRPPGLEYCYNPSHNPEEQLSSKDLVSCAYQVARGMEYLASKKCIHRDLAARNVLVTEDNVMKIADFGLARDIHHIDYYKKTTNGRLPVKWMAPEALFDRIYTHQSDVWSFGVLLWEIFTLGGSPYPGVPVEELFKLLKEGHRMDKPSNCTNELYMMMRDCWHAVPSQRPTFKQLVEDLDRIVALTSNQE

[14] = target: Hck(h) activated (human) (UniProt P08631)
Hck(h) activated (human), sequence (P08631 251-518 limits assumed): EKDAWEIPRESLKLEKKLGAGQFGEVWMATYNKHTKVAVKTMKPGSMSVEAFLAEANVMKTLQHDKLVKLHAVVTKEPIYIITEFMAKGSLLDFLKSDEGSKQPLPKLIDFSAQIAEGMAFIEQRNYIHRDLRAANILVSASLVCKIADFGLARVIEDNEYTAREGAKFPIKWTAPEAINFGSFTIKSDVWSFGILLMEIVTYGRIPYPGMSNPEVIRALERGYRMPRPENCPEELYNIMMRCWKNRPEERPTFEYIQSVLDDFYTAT

[15] = target: MSSK1(h) (human) (UniProt Q9UPE1)
MSSK1(h) (human), sequence (Q9UPE1 whole entry): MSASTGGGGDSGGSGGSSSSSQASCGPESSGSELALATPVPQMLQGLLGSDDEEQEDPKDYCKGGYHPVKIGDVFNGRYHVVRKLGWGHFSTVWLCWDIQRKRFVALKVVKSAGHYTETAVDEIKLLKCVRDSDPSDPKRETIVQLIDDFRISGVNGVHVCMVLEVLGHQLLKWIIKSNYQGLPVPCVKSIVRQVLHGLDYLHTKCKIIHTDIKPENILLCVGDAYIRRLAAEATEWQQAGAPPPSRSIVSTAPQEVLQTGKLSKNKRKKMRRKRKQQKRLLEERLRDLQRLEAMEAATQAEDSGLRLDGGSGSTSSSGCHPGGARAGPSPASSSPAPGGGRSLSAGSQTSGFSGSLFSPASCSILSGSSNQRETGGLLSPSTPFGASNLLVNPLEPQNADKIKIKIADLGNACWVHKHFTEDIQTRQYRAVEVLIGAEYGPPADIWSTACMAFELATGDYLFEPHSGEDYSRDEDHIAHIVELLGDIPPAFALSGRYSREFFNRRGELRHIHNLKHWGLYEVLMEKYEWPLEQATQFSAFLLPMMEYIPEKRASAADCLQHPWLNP

[16] = target: MARK1(h) (human) (UniProt Q9P0L2)
MARK1(h) (human), sequence (Q9P0L2 whole entry): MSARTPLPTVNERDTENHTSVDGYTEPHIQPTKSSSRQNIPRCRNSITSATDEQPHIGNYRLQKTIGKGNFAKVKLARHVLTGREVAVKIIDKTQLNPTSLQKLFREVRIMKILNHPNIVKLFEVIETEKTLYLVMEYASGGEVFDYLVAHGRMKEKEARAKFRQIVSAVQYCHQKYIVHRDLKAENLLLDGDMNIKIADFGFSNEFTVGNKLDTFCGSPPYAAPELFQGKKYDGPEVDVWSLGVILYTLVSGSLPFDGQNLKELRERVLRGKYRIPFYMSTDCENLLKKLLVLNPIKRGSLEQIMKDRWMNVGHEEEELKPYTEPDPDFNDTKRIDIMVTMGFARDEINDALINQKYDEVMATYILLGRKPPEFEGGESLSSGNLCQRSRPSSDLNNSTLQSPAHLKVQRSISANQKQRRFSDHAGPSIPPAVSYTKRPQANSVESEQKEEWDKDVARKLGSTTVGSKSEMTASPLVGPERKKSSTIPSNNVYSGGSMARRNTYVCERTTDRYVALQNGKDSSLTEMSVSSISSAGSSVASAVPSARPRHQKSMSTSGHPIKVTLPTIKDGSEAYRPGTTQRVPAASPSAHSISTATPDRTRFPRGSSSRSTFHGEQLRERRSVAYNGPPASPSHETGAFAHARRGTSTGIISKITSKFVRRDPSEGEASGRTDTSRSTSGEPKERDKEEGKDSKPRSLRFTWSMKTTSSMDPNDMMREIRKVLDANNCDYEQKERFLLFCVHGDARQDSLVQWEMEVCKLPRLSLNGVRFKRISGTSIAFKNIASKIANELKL

% activity, 100 µM [1]: 66% | % activity, 100 µM [2]: 36% | % activity, 100 µM [3]: 0% | % activity, 100 µM [4]: 18% | % activity, 100 µM [5]: 150% | % activity, 100 µM [6]: 0% | % activity, 100 µM [7]: 7% | % activity, 100 µM [8]: -1% | inhibition of kinase activity at 100 µM [8]: > 65% | % activity, 100 µM [9]: 9% | inhibition of kinase activity at 100 µM [9]: > 65% | % activity, 100 µM [10]: 42% | % activity, 100 µM [11]: 3% | % activity, 100 µM [12]: 24% | % activity, 100 µM [13]: 18% | % activity, 100 µM [14]: 67% | % activity, 100 µM [15]: 22% | % activity, 100 µM [16]: 110%
Substance: MMI-0500 (peptide)
